Data taken from the supplement of paper PMC7877785.
± gives the uncertainty stated by the source.

Assay: self-splicing fitness, log relative to wild type (ln ratio); higher = more splicing; Tetrahymena group I intron in knt gene, E. coli kanamycin selection, DiMSum; sequences stand for … in CUCUCU…GGAGGGAAAAGUUAUCAGGCAUGCACCUGGUAGCUAGUCUUUAAACCAAUAGAUUGCAUCGGUUUAAAAGGCAAGACCGUCAAAUUGCGGGAAAGGGGUCAACAGCCGUUCAGUACCAAGUCUCAGGGGAAACUUUGAGAUGGCCUUGCAAAGGGUAUGGUAAUAAGCUGACGGACAUGGUCCUAACCACGCAGCCAAGUCCUAAGUCAACAGAUCUUCUGUUGAUAUGGAUGCAGUUCACAGACUAAAUGUCGGUCGGGGAAGAUGUAUUCUUCUCAUAAGAUAUAGUCGGACCUCUCCUUAAUGGGAGCUAGCGGAUGAAGUGAUGCAACACUGGAGCCGCUGGGAACUAAUUUGUAUGCGAAAGUAUAUUGAUUAGUUUUGGAGUACUCGUGGUCG
Procedure, shortened: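 A randomised library covering all eight P1ex-region intron nucleotides was built with the intron in the knt kanamycin-resistance gene on pET-22b(+) and held in E. coli BL21(DE3). Cells were grown overnight at 37°C or 30°C on LB agar, with or without 25 μg/mL kanamycin, plus 100 μg/mL carbenicillin, 50 μM IPTG and 0.2% rhamnose, and pooled colonies were amplicon-sequenced on an Illumina HiSeq 2500. DiMSum fitness is the error-weighted combination of wild-type-normalised replicate fold changes, kanamycin versus none.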

## CGUUAGCAAUAUUACGCGGU
30 °C
  self-splicing fitness (ln): -3.07 ± 0.19
37 °C
  self-splicing fitness (ln): -3.35 ± 0.29

## AGUCAGCAAUAUUACGCUGA
30 °C
  self-splicing fitness (ln): -2.55 ± 0.19
37 °C
  self-splicing fitness (ln): -2.24 ± 0.22

## UGAGAGCAAUAUUACGACUA
30 °C
  self-splicing fitness (ln): -1.47 ± 0.22
37 °C
  self-splicing fitness (ln): -1.64 ± 0.21

## AUCCAGCAAUAUUACGCGCA
30 °C
  self-splicing fitness (ln): -0.994 ± 0.067
37 °C
  self-splicing fitness (ln): -0.169 ± 0.081

## GACGAGCAAUAUUACGAGAG
30 °C
  self-splicing fitness (ln): -3.77 ± 0.34
37 °C
  self-splicing fitness (ln): -0.809 ± 0.18

## GCAUAGCAAUAUUACGACCA
30 °C
  self-splicing fitness (ln): -0.207 ± 0.11
37 °C
  self-splicing fitness (ln): -0.544 ± 0.14

## UGUCAGCAAUAUUACGCACA
30 °C
  self-splicing fitness (ln): -0.467 ± 0.083
37 °C
  self-splicing fitness (ln): -0.355 ± 0.093

## UGACAGCAAUAUUACGUUCU
30 °C
  self-splicing fitness (ln): -0.552 ± 0.071
37 °C
  self-splicing fitness (ln): -0.321 ± 0.089

## UUUUAGCAAUAUUACGCUCA
30 °C
  self-splicing fitness (ln): -0.731 ± 0.29
37 °C
  self-splicing fitness (ln): 0.849 ± 0.44

## GCAGAGCAAUAUUACGGUAG
30 °C
  self-splicing fitness (ln): -1.82 ± 0.27
37 °C
  self-splicing fitness (ln): -0.285 ± 0.44

## GCUAAGCAAUAUUACGAGCA
30 °C
  self-splicing fitness (ln): -1.72 ± 0.14
37 °C
  self-splicing fitness (ln): -1.03 ± 0.13

## CAAAAGCAAUAUUACGGGGA
30 °C
  self-splicing fitness (ln): -3.26 ± 0.15
37 °C
  self-splicing fitness (ln): -2.36 ± 0.15

## GCAAAGCAAUAUUACGUGUC
30 °C
  self-splicing fitness (ln): -4.47 ± 0.18
37 °C
  self-splicing fitness (ln): -1.84 ± 0.12

## AUCUAGCAAUAUUACGAGCG
30 °C
  self-splicing fitness (ln): -1.87 ± 0.12
37 °C
  self-splicing fitness (ln): -1.25 ± 0.15

## CAACAGCAAUAUUACGUGAA
30 °C
  self-splicing fitness (ln): -1.36 ± 0.056
37 °C
  self-splicing fitness (ln): -1.62 ± 0.1

## GGUUAGCAAUAUUACGUCCG
30 °C
  self-splicing fitness (ln): -0.773 ± 0.11
37 °C
  self-splicing fitness (ln): -0.617 ± 0.2

## GUCGAGCAAUAUUACGAAAG
30 °C
  self-splicing fitness (ln): -2.57 ± 0.29
37 °C
  self-splicing fitness (ln): -2.2 ± 0.35

## GCACAGCAAUAUUACGCGGG
30 °C
  self-splicing fitness (ln): -2.13 ± 0.069
37 °C
  self-splicing fitness (ln): -1.39 ± 0.081

## GCCGAGCAAUAUUACGUCAA
37 °C
  self-splicing fitness (ln): -2.36 ± 0.33

## CAAAAGCAAUAUUACGCGAC
30 °C
  self-splicing fitness (ln): -3.52 ± 0.34
37 °C
  self-splicing fitness (ln): -4.08 ± 0.42

## CGAAAGCAAUAUUACGCCAC
30 °C
  self-splicing fitness (ln): -2.32 ± 0.37

## CAAUAGCAAUAUUACGUAUC
30 °C
  self-splicing fitness (ln): -3.48 ± 0.15
37 °C
  self-splicing fitness (ln): -2.73 ± 0.18

## CUCGAGCAAUAUUACGCACC
37 °C
  self-splicing fitness (ln): -2.08 ± 0.32

## CUGUAGCAAUAUUACGAGGA
30 °C
  self-splicing fitness (ln): -2.78 ± 0.41
37 °C
  self-splicing fitness (ln): -1.62 ± 0.32

## GUAAAGCAAUAUUACGCUCU
30 °C
  self-splicing fitness (ln): -2.11 ± 0.19
37 °C
  self-splicing fitness (ln): -0.206 ± 0.24

## GCCCAGCAAUAUUACGUAGC
30 °C
  self-splicing fitness (ln): -0.413 ± 0.07
37 °C
  self-splicing fitness (ln): -0.216 ± 0.079

## UCUUAGCAAUAUUACGACCA
30 °C
  self-splicing fitness (ln): -1.32 ± 0.48

## CACUAGCAAUAUUACGCCGG
30 °C
  self-splicing fitness (ln): -0.975 ± 0.073
37 °C
  self-splicing fitness (ln): -0.471 ± 0.1

## GCGGAGCAAUAUUACGCGAG
37 °C
  self-splicing fitness (ln): -2.39 ± 0.36

## UGGCAGCAAUAUUACGUGGC
30 °C
  self-splicing fitness (ln): -3.92 ± 0.18
37 °C
  self-splicing fitness (ln): -2.72 ± 0.19

## UAAGAGCAAUAUUACGCGUG
30 °C
  self-splicing fitness (ln): -2.33 ± 0.13
37 °C
  self-splicing fitness (ln): -1.88 ± 0.13

## GUAUAGCAAUAUUACGCGAG
30 °C
  self-splicing fitness (ln): -1.31 ± 0.11
37 °C
  self-splicing fitness (ln): -1.47 ± 0.12

## UAUUAGCAAUAUUACGUACG
30 °C
  self-splicing fitness (ln): -0.0813 ± 0.071
37 °C
  self-splicing fitness (ln): -0.262 ± 0.09

## CUGAAGCAAUAUUACGAACG
30 °C
  self-splicing fitness (ln): 0.17 ± 0.13
37 °C
  self-splicing fitness (ln): 0.661 ± 0.17

## CUUAAGCAAUAUUACGUAGC
30 °C
  self-splicing fitness (ln): -3.71 ± 0.23

## UUACAGCAAUAUUACGACUA
30 °C
  self-splicing fitness (ln): 0.0835 ± 0.1
37 °C
  self-splicing fitness (ln): 0.256 ± 0.12

## CGCAAGCAAUAUUACGCAAA
30 °C
  self-splicing fitness (ln): -1.92 ± 0.22
37 °C
  self-splicing fitness (ln): -2.99 ± 0.37

## CCACAGCAAUAUUACGGCAU
30 °C
  self-splicing fitness (ln): -3.72 ± 0.16
37 °C
  self-splicing fitness (ln): -2.54 ± 0.18

## UUCUAGCAAUAUUACGAGAA
30 °C
  self-splicing fitness (ln): -2.54 ± 0.29
37 °C
  self-splicing fitness (ln): -2.11 ± 0.29

## GUCGAGCAAUAUUACGGGGG
30 °C
  self-splicing fitness (ln): -2.05 ± 0.29
